Experimental findings from article PMC7954794, “Protein context shapes the specificity of SH3 domain-mediated interactions in vivo” (Nature Communications, 2021) are described below.

The chains are these.
B1: S. cerevisiae Abp1 (full length; SH3 domain 535-592 mutated) / Hua2 (parent)
chain 1: MALEPIDYTTHSREIDAEYLKIVRGSDPDTTWLIISPNAKKEYEPESTGSSFHDFLQLFDETKVQYGLARVSPPGSDVEKIIIIGWCPDSAPLKTRASFAANFAAVANNLFKGYHVQVTARDEDDLDENELLMKISNAAGARYSIQTSSKQQGKASTPPVKKSFTPSKSPAPVSKKEPVKTPSPAPAAKISSRVNDNNDDDDWNEPELKERDFDQAPLKPNQSSYKPIGKIDLQKVIAEEKAKEDPRLVQKPTAAGSKIDPSSDIANLKNESKLKRDSEFNSFLGTTKPPSMTESSLKNDDDKVIKGFRNEKSPAQLWAERKAKQNSGNAETKAEAPKPEVPEDEPEGEPDVKDLKSKFEGLAASEKEEEEMENKFAPPPKKSEPTIISPKPFSKPQEPVKAEEAEQPKTDYKKIGNPLPGMHIEADNEEEPEENDDDWDDDEDEAAQPPLPSRNVASGAPVQKEEPEQEEIAPSLPSRNSIPAPKQEEAPEQAPEEEIEEEAEEAAPQLPSRSSAAPPPPPRRATPEKKPKENPWATAEYDYDAAEDNELTFVENDKIINIEFVDDDWWLGELEKDGSKGLFPSNYVSLGN
chain 2: MQQTKFGKMYLDHDSVVEYSEDEIVEADRITLGYKKRLSMIENQMRHLLEDFSLDVQQIEPILADLQKYYDAFLQLLQKRNKSLQCKRSTHQPVPSPMNSQTSTNAKVNLSGKLMKFQLNSVQKFDEENILRILQNKIEFEHYFQIDKGKKQKVLLLAVYQCLNGPTRLHKVLNIEGIIHNNSIRTILGKQVSSSKWTVFLYDVKLVLLAHRQDVPNLETSKMIVRYGDLFPCALYFKDHTAY

The variants in the assay derive from B1. As to the kind of experiment: DHFR protein-fragment complementation in yeast (Abp1-DHFR F[1,2] x partner-DHFR F[3]), deep mutational scanning, second methotrexate selection vs reference. The following applies: with Hua2; S. cerevisiae, DHFR-PCA selection in liquid with methotrexate at 30 C, two 72 h selections (the score uses the second); reference = the pre-selection culture; not an affinity; scale: DMS score: mean over two replicates of log2(f_test/f_ref + 0.5)/ln 2, minus the synonymous-codon median.
With chain 1 MALEPIDYTTHSREIDAEYLKIVRGSDPDTTWLIISPNAKKEYEPESTGSSFHDFLQLFDETKVQYGLARVSPPGSDVEKIIIIGWCPDSAPLKTRASFAANFAAVANNLFKGYHVQVTARDEDDLDENELLMKISNAAGARYSIQTSSKQQGKASTPPVKKSFTPSKSPAPVSKKEPVKTPSPAPAAKISSRVNDNNDDDDWNEPELKERDFDQAPLKPNQSSYKPIGKIDLQKVIAEEKAKEDPRLVQKPTAAGSKIDPSSDIANLKNESKLKRDSEFNSFLGTTKPPSMTESSLKNDDDKVIKGFRNEKSPAQLWAERKAKQNSGNAETKAEAPKPEVPEDEPEGEPDVKDLKSKFEGLAASEKEEEEMENKFAPPPKKSEPTIISPKPFSKPQEPVKAEEAEQPKTDYKKIGNPLPGMHIEADNEEEPEENDDDWDDDEDEAAQPPLPSRNVASGAPVQKEEPEQEEIAPSLPSRNSIPAPKQEEAPEQAPEEEIEEEAEEAAPQLPSRSSAAPPPPPRRATPEKKPKENPWATTEYDYDAAEDNELTFVENDKIINIEFVDDDWWLGELEKDGSKGLFPSNYVSLGN [chain 1 A539T], the screen value is -1.45.

Consider chain 1 MALEPIDYTTHSREIDAEYLKIVRGSDPDTTWLIISPNAKKEYEPESTGSSFHDFLQLFDETKVQYGLARVSPPGSDVEKIIIIGWCPDSAPLKTRASFAANFAAVANNLFKGYHVQVTARDEDDLDENELLMKISNAAGARYSIQTSSKQQGKASTPPVKKSFTPSKSPAPVSKKEPVKTPSPAPAAKISSRVNDNNDDDDWNEPELKERDFDQAPLKPNQSSYKPIGKIDLQKVIAEEKAKEDPRLVQKPTAAGSKIDPSSDIANLKNESKLKRDSEFNSFLGTTKPPSMTESSLKNDDDKVIKGFRNEKSPAQLWAERKAKQNSGNAETKAEAPKPEVPEDEPEGEPDVKDLKSKFEGLAASEKEEEEMENKFAPPPKKSEPTIISPKPFSKPQEPVKAEEAEQPKTDYKKIGNPLPGMHIEADNEEEPEENDDDWDDDEDEAAQPPLPSRNVASGAPVQKEEPEQEEIAPSLPSRNSIPAPKQEEAPEQAPEEEIEEEAEEAAPQLPSRSSAAPPPPPRRATPEKKPKENPWATAEYDYDMAEDNELTFVENDKIINIEFVDDDWWLGELEKDGSKGLFPSNYVSLGN [chain 1 A545M], for which the screen value is -1.83. Regarding chain 1 MALEPIDYTTHSREIDAEYLKIVRGSDPDTTWLIISPNAKKEYEPESTGSSFHDFLQLFDETKVQYGLARVSPPGSDVEKIIIIGWCPDSAPLKTRASFAANFAAVANNLFKGYHVQVTARDEDDLDENELLMKISNAAGARYSIQTSSKQQGKASTPPVKKSFTPSKSPAPVSKKEPVKTPSPAPAAKISSRVNDNNDDDDWNEPELKERDFDQAPLKPNQSSYKPIGKIDLQKVIAEEKAKEDPRLVQKPTAAGSKIDPSSDIANLKNESKLKRDSEFNSFLGTTKPPSMTESSLKNDDDKVIKGFRNEKSPAQLWAERKAKQNSGNAETKAEAPKPEVPEDEPEGEPDVKDLKSKFEGLAASEKEEEEMENKFAPPPKKSEPTIISPKPFSKPQEPVKAEEAEQPKTDYKKIGNPLPGMHIEADNEEEPEENDDDWDDDEDEAAQPPLPSRNVASGAPVQKEEPEQEEIAPSLPSRNSIPAPKQEEAPEQAPEEEIEEEAEEAAPQLPSRSSAAPPPPPRRATPEKKPKENPWATAEYDYDHAEDNELTFVENDKIINIEFVDDDWWLGELEKDGSKGLFPSNYVSLGN [chain 1 A545H], the screen value is -1.96. Regarding chain 1 MALEPIDYTTHSREIDAEYLKIVRGSDPDTTWLIISPNAKKEYEPESTGSSFHDFLQLFDETKVQYGLARVSPPGSDVEKIIIIGWCPDSAPLKTRASFAANFAAVANNLFKGYHVQVTARDEDDLDENELLMKISNAAGARYSIQTSSKQQGKASTPPVKKSFTPSKSPAPVSKKEPVKTPSPAPAAKISSRVNDNNDDDDWNEPELKERDFDQAPLKPNQSSYKPIGKIDLQKVIAEEKAKEDPRLVQKPTAAGSKIDPSSDIANLKNESKLKRDSEFNSFLGTTKPPSMTESSLKNDDDKVIKGFRNEKSPAQLWAERKAKQNSGNAETKAEAPKPEVPEDEPEGEPDVKDLKSKFEGLAASEKEEEEMENKFAPPPKKSEPTIISPKPFSKPQEPVKAEEAEQPKTDYKKIGNPLPGMHIEADNEEEPEENDDDWDDDEDEAAQPPLPSRNVASGAPVQKEEPEQEEIAPSLPSRNSIPAPKQEEAPEQAPEEEIEEEAEEAAPQLPSRSSAAPPPPPRRATPEKKPKENPWATAEYDYDPAEDNELTFVENDKIINIEFVDDDWWLGELEKDGSKGLFPSNYVSLGN [chain 1 A545P], the screen value was -1.42. For chain 1 MALEPIDYTTHSREIDAEYLKIVRGSDPDTTWLIISPNAKKEYEPESTGSSFHDFLQLFDETKVQYGLARVSPPGSDVEKIIIIGWCPDSAPLKTRASFAANFAAVANNLFKGYHVQVTARDEDDLDENELLMKISNAAGARYSIQTSSKQQGKASTPPVKKSFTPSKSPAPVSKKEPVKTPSPAPAAKISSRVNDNNDDDDWNEPELKERDFDQAPLKPNQSSYKPIGKIDLQKVIAEEKAKEDPRLVQKPTAAGSKIDPSSDIANLKNESKLKRDSEFNSFLGTTKPPSMTESSLKNDDDKVIKGFRNEKSPAQLWAERKAKQNSGNAETKAEAPKPEVPEDEPEGEPDVKDLKSKFEGLAASEKEEEEMENKFAPPPKKSEPTIISPKPFSKPQEPVKAEEAEQPKTDYKKIGNPLPGMHIEADNEEEPEENDDDWDDDEDEAAQPPLPSRNVASGAPVQKEEPEQEEIAPSLPSRNSIPAPKQEEAPEQAPEEEIEEEAEEAAPQLPSRSSAAPPPPPRRATPEKKPKENPWATAEYDYDWAEDNELTFVENDKIINIEFVDDDWWLGELEKDGSKGLFPSNYVSLGN [chain 1 A545W] the value was -2.91.

chain 1 MALEPIDYTTHSREIDAEYLKIVRGSDPDTTWLIISPNAKKEYEPESTGSSFHDFLQLFDETKVQYGLARVSPPGSDVEKIIIIGWCPDSAPLKTRASFAANFAAVANNLFKGYHVQVTARDEDDLDENELLMKISNAAGARYSIQTSSKQQGKASTPPVKKSFTPSKSPAPVSKKEPVKTPSPAPAAKISSRVNDNNDDDDWNEPELKERDFDQAPLKPNQSSYKPIGKIDLQKVIAEEKAKEDPRLVQKPTAAGSKIDPSSDIANLKNESKLKRDSEFNSFLGTTKPPSMTESSLKNDDDKVIKGFRNEKSPAQLWAERKAKQNSGNAETKAEAPKPEVPEDEPEGEPDVKDLKSKFEGLAASEKEEEEMENKFAPPPKKSEPTIISPKPFSKPQEPVKAEEAEQPKTDYKKIGNPLPGMHIEADNEEEPEENDDDWDDDEDEAAQPPLPSRNVASGAPVQKEEPEQEEIAPSLPSRNSIPAPKQEEAPEQAPEEEIEEEAEEAAPQLPSRSSAAPPPPPRRATPEKKPKENPWATAEYDYDLAEDNELTFVENDKIINIEFVDDDWWLGELEKDGSKGLFPSNYVSLGN [chain 1 A545L]: the screen value was -2.7. In the case of chain 1 MALEPIDYTTHSREIDAEYLKIVRGSDPDTTWLIISPNAKKEYEPESTGSSFHDFLQLFDETKVQYGLARVSPPGSDVEKIIIIGWCPDSAPLKTRASFAANFAAVANNLFKGYHVQVTARDEDDLDENELLMKISNAAGARYSIQTSSKQQGKASTPPVKKSFTPSKSPAPVSKKEPVKTPSPAPAAKISSRVNDNNDDDDWNEPELKERDFDQAPLKPNQSSYKPIGKIDLQKVIAEEKAKEDPRLVQKPTAAGSKIDPSSDIANLKNESKLKRDSEFNSFLGTTKPPSMTESSLKNDDDKVIKGFRNEKSPAQLWAERKAKQNSGNAETKAEAPKPEVPEDEPEGEPDVKDLKSKFEGLAASEKEEEEMENKFAPPPKKSEPTIISPKPFSKPQEPVKAEEAEQPKTDYKKIGNPLPGMHIEADNEEEPEENDDDWDDDEDEAAQPPLPSRNVASGAPVQKEEPEQEEIAPSLPSRNSIPAPKQEEAPEQAPEEEIEEEAEEAAPQLPSRSSAAPPPPPRRATPEKKPKENPWATAEYDYDDAEDNELTFVENDKIINIEFVDDDWWLGELEKDGSKGLFPSNYVSLGN [chain 1 A545D], the screen value is -1.35. With chain 1 MALEPIDYTTHSREIDAEYLKIVRGSDPDTTWLIISPNAKKEYEPESTGSSFHDFLQLFDETKVQYGLARVSPPGSDVEKIIIIGWCPDSAPLKTRASFAANFAAVANNLFKGYHVQVTARDEDDLDENELLMKISNAAGARYSIQTSSKQQGKASTPPVKKSFTPSKSPAPVSKKEPVKTPSPAPAAKISSRVNDNNDDDDWNEPELKERDFDQAPLKPNQSSYKPIGKIDLQKVIAEEKAKEDPRLVQKPTAAGSKIDPSSDIANLKNESKLKRDSEFNSFLGTTKPPSMTESSLKNDDDKVIKGFRNEKSPAQLWAERKAKQNSGNAETKAEAPKPEVPEDEPEGEPDVKDLKSKFEGLAASEKEEEEMENKFAPPPKKSEPTIISPKPFSKPQEPVKAEEAEQPKTDYKKIGNPLPGMHIEADNEEEPEENDDDWDDDEDEAAQPPLPSRNVASGAPVQKEEPEQEEIAPSLPSRNSIPAPKQEEAPEQAPEEEIEEEAEEAAPQLPSRSSAAPPPPPRRATPEKKPKENPWATAEYDYDYAEDNELTFVENDKIINIEFVDDDWWLGELEKDGSKGLFPSNYVSLGN [chain 1 A545Y], the screen value was -2.53. As to chain 1 MALEPIDYTTHSREIDAEYLKIVRGSDPDTTWLIISPNAKKEYEPESTGSSFHDFLQLFDETKVQYGLARVSPPGSDVEKIIIIGWCPDSAPLKTRASFAANFAAVANNLFKGYHVQVTARDEDDLDENELLMKISNAAGARYSIQTSSKQQGKASTPPVKKSFTPSKSPAPVSKKEPVKTPSPAPAAKISSRVNDNNDDDDWNEPELKERDFDQAPLKPNQSSYKPIGKIDLQKVIAEEKAKEDPRLVQKPTAAGSKIDPSSDIANLKNESKLKRDSEFNSFLGTTKPPSMTESSLKNDDDKVIKGFRNEKSPAQLWAERKAKQNSGNAETKAEAPKPEVPEDEPEGEPDVKDLKSKFEGLAASEKEEEEMENKFAPPPKKSEPTIISPKPFSKPQEPVKAEEAEQPKTDYKKIGNPLPGMHIEADNEEEPEENDDDWDDDEDEAAQPPLPSRNVASGAPVQKEEPEQEEIAPSLPSRNSIPAPKQEEAPEQAPEEEIEEEAEEAAPQLPSRSSAAPPPPPRRATPEKKPKENPWATAEYDYDFAEDNELTFVENDKIINIEFVDDDWWLGELEKDGSKGLFPSNYVSLGN [chain 1 A545F], the screen value is -2.84. Consider chain 1 MALEPIDYTTHSREIDAEYLKIVRGSDPDTTWLIISPNAKKEYEPESTGSSFHDFLQLFDETKVQYGLARVSPPGSDVEKIIIIGWCPDSAPLKTRASFAANFAAVANNLFKGYHVQVTARDEDDLDENELLMKISNAAGARYSIQTSSKQQGKASTPPVKKSFTPSKSPAPVSKKEPVKTPSPAPAAKISSRVNDNNDDDDWNEPELKERDFDQAPLKPNQSSYKPIGKIDLQKVIAEEKAKEDPRLVQKPTAAGSKIDPSSDIANLKNESKLKRDSEFNSFLGTTKPPSMTESSLKNDDDKVIKGFRNEKSPAQLWAERKAKQNSGNAETKAEAPKPEVPEDEPEGEPDVKDLKSKFEGLAASEKEEEEMENKFAPPPKKSEPTIISPKPFSKPQEPVKAEEAEQPKTDYKKIGNPLPGMHIEADNEEEPEENDDDWDDDEDEAAQPPLPSRNVASGAPVQKEEPEQEEIAPSLPSRNSIPAPKQEEAPEQAPEEEIEEEAEEAAPQLPSRSSAAPPPPPRRATPEKKPKENPWATAEYDYDVAEDNELTFVENDKIINIEFVDDDWWLGELEKDGSKGLFPSNYVSLGN [chain 1 A545V], for which the screen value was -1.96.
